Measurements: patent US20220024982A1 (Bicycle, published 2022)
Values belong to the binder of their own block, whether it stands above or below them. Numbered stars: 1 amine (or outer) side, 2 acyl side, 3 side chain; on linkers, the order of the positions; unused ones are H or OH. Bridge positions count the residues as written; N and C are the ends. Square brackets hold non-standard residues; d marks the D form. Ends that are not written are not given here. TATA = O=C(CC[*:1])N1CN(C(=O)CC[*:2])CN(C(=O)CC[*:3])C1; fluorescein = fluorescein (fluorescent label, [FI]); 2Nal = N[C@@H](Cc1ccc2ccccc2c1)C(=O)O; TBMB = c1c(C[*:1])cc(C[*:3])cc1C[*:2]; hArg = N=C(N)NCCCC[C@H](N)C(=O)O; Tle = CC(C)(C)[C@H](N)C(=O)O; Sar = CNCC(=O)O

Experiments:
[1] = target: T1, MT1-MMP Hemopexin domain (PEX) (UniProt P50281 319-511); test: FP competition vs tracer 17-69-07-N040
T1 construct: domain: Hemopexin domain (PEX); Target of the fluorescence polarisation assays; also called hemopexin of MT1-MMP; MMP14
Description: (§1) Here, a pre-formed complex of PEX with the fluorescent PEX-binding tracer is titrated with free, non-fluoresceinated bicyclic peptide. Since all 17-69-based peptides are expected to bind at the same site, the titrant will displace the fluorescent tracer from PEX. Dissociation of the complex can be measured quantitatively, and the Kd of the competitor (titrant) to the target protein determined. The advantage of the competition method is that the affinities of non-fluoresceinated bicyclic peptides can be determined accurately and rapidly.
(§2) Subsequently, the non-fluorescent competitor bicyclic peptide (usually just the bicycle core sequence) is titrated, such that it displaces the fluorescent tracer from the target protein. The displacement of the tracer is measured and associated with a drop in fluorescence polarisation. The drop in fluorescence polarisation is proportional to the fraction of target protein bound with the non-fluorescent titrant, and thus is a measure of the affinity of titrant to target protein.
(§3) The raw data is fit to the analytical solution of the cubic equation that describes the equilibria between fluorescent tracer, titrant, and binding protein. The fit requires the value of the affinity of fluorescent tracer to the target protein, which can be determined separately by direct binding FP experiments (see previous section).

[2] = target: T1, MT1-MMP Hemopexin domain (PEX); test: FP direct binding
[3] = target: T2, human MT1 MMP14 protein, hemopexin domain (obtained from Merck Millipore) (human, UniProt P50281 319-511, limits assumed, randomly biotinylated (EZ-Link Sulfo-NHS-LC-LC-Biotin)); test: SPR, biotinylated target on streptavidin chip
T2 construct: domain: hemopexin domain; Target of the SPR assay, captured on streptavidin; also called biotinylated MT1 MMP14
Procedure: Streptavidin was immobilized on the chip using standard amine-coupling chemistry at 25° C. with HBS-N (10 mM HEPES, 0.15 M NaCl, pH 7.4) as the running buffer. […] Buffer was changed to PBS/0.05% Tween 20 and a dilution series of the peptides was prepared in this buffer with a final DMSO concentration of 0.5%. […] Data were corrected for DMSO excluded volume effects. All data were double-referenced for blank injections and reference surface using standard processing procedures and data processing and kinetic fitting were performed using Scrubber software, version 2.0c (BioLogic Software).

[4] = target: T1, MT1-MMP Hemopexin domain (PEX); test: FP competition vs tracer 17-69-07-N041
Description: as §1, §2, §3

[5] = target: T1, MT1-MMP Hemopexin domain (PEX); test: FP competition vs tracer 17-88-N006
Procedure: as §2, §3

[6] = target: T1, MT1-MMP Hemopexin domain (PEX); test: FP competition, plate 1, tracer not named

Binder: ACDSPEECFYPLECA (linker 2-8-14 via TATA) [17-122-04]
- Kd [1]: > 2100 nM

Binder: fluorescein-G[Sar][Sar][Sar][Sar][Sar]ACYNEFACEDFYDICA (linker 8-14-21 via TBMB, fluorescent tracer) [17-69-07-N041]
- Kd [2]: 3.4 nM

Binder: ACPYSWETCLFGDYRCA[Sar][Sar][Sar][Sar][Sar][Sar]K(fluorescein) (linker 2-9-16 via TBMB) [17-88-N006]
- Kd [2]: 14 nM

Binder: ACPYDWATCLFGDYRCA[Sar][Sar][Sar][Sar][Sar][Sar]K(fluorescein) (linker 2-9-16 via TBMB) [17-88-226-N002]
- Kd [2]: 50 nM

Binder: ACKEPQECFYPLKCA (linker 2-8-14 via TATA) [17-122-03]
- Kd [1]: > 378 nM

Binder: fluorescein-G[Sar][Sar][Sar][Sar][Sar]ACMNQFGCEDFYDICA (linker 8-14-21 via TBMB, fluorescent tracer) [17-69-12-N004]
- Kd [2]: 1 nM

Binder: ACLEPDECFYPMECA (linker 2-8-14 via TATA) [17-122-02]
- Kd [1]: > 929 nM

Binder: ACADECRLLFPKTCA (linker 2-6-14 via TATA) [17-120-05]
- Kd [1]: > 280 nM

Binder: ACYEECRLLFPRTCA (linker 2-6-14 via TATA) [17-120-21]
- Kd [5]: > 82.8 nM

Binder: ACYNEFGCEDFYDICA[Sar][Sar][Sar][Sar][Sar][Sar]K(fluorescein) (linker 2-8-15 via TBMB, fluorescent tracer) [17-69-07-N040]
- Kd [2]: 0.52 nM

Next, values leading:

- Kd [1]: > 139 nM
Binder: ACEEAFYPCHHPLYRCA (linker 2-9-16 via TATA (inferred)) [17-126-25]

- Kd [3]: 400 nM
Binder: Ac-LPPCV[hArg]ECALL[2Nal]P[hArg]TC (linker 4-8-16 via TATA) [BCY10223]

- Kd [4]: > 316 nM
Binder: ACEEEFYPCGHPLYVCA (linker 2-9-16 via TATA) [17-126-01]

- Kd [1]: 200 nM
Binder: ACDEQFYPCNHRLNTCA (linker 2-9-16 via TATA (inferred)) [17-126-24]

- Ki [6]: 80 nM
Binder: Ac-LPPC[Tle][hArg]ECALLFP[hArg]TC (linker 4-8-16 via TATA) [BCY11149]

- Kd [4]: > 430 nM
Binder: ACVEEFYPCDHPLYSCA (linker 2-9-16 via TATA) [17-126-03]

- Kd [4]: > 282 nM
Binder: ACEEQFYPCTHALYTCA (linker 2-9-16 via TATA) [17-126-02]
